The results in this text go back to article PMC12328718.

In the data set the target is T1, SHMT2 K281S-R284S K302S;R305S (UniProt P34897).
T1 sequence: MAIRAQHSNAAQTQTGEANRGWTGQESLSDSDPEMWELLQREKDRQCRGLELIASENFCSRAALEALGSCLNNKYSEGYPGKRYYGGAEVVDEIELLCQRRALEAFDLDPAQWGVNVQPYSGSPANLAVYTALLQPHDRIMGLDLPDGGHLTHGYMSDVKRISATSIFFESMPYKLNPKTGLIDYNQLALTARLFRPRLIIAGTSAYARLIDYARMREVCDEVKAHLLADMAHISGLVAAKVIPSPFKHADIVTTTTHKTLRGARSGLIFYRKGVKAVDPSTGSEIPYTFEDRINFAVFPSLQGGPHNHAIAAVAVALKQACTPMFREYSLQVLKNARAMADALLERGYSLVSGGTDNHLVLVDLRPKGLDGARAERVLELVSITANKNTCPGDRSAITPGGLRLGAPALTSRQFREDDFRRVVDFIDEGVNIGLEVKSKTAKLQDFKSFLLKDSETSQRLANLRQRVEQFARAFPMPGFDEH
The experiment in a line: EMSA. The conditions noted are these: EMSA: 20 mM HEPES pH 7.4, 150 mM NaCl, 20 ug/ml BSA, 0.1 ug tRNA, RNase inhibitor, 8% glycerol, 25 C, 30 min; 4% native PAGE in 0.5x TBE.

As for “GGGAUAAAGAAAAAAGCGGUGAGUGGGCGAACUACAAUUCCCAAAAGGCCACAAAGGGGCCACCACUACGCAUGCGUAGAUCCCUCCCGUUAGCUUUGGCGCCUCAGCGAGCUCUUCUCGCGCAUGCGUUCUCCGAACGGUCUUCUUCCGACAGCUUGCUGCCCUAGACCAGAGUUGGUGGCUGGACCUCCUGCGACUUCCGAGUUGCG [UTR2 RNA]”, the Kd (commonly a measure of binding affinity in units of concentration) was 1600 nM.
